Measurements taken from US7026443.
Where two headings read alike, the source gives them in different places.

Columns and labels:
HLA-A*2402 (human) = assay: competition with 125I-labelled standard peptide for purified HLA, gel filtration
HLA-B*0702 (human) [1] = assay: competition with 125I-labeled standard peptide for purified HLA, gel filtration
HLA-B*3501 (human) [2] = assay: as above
HLA-B*5101 (human) [3] = assay: as above
HLA-B*5301 (human) [4] = assay: as above
HLA-B*5401 (human) [5] = assay: as above
HLA-A*0301 (human) [6] = assay: competition with 125I-labeled standard peptide for purified HLA-A*0301, gel filtration
[7] = target: HLA-A*1101 (purified HLA class I molecule) (human); assay: competition with 125I-labelled standard peptide for purified HLA-A*1101, gel filtration
HLA-B*0702 (human) [8] = assay: competition with 125I-labeled standard probe peptide for purified HLA, gel filtration; settings: for relative binding ratio: scale: ratio
HLA-B*3501 (human) [9] = assay: as above; settings: for relative binding ratio: scale: ratio
HLA-B*5101 (human) [10] = assay: as above; settings: for relative binding ratio: scale: ratio
HLA-B*5301 (human) [11] = assay: as above; settings: for relative binding ratio: scale: ratio
HLA-B*5401 (human) [12] = assay: as above; settings: for relative binding ratio: scale: ratio
[13] = target: HLA-A*0201 (purified HLA class I molecule) (human)
HLA-B*3501 (human) [14] = target: HLA-B*3501 (human)
HLA-B*5101 (human) [15] = target: HLA-B*5101 (human)
HLA-B*5301 (human) [16] = target: HLA-B*5301 (human)
HLA-A*0301 (human) [17] = assay: competition with 125I-labeled standard probe peptide for purified HLA-A*0301, gel filtration
HLA-A*0201 (human) = assay: competition against 125I-labelled standard peptide on purified HLA-A*0201, gel filtration
HLA-A*0301 (human) [18] = assay: competition with 125I-labeled standard peptide for purified HLA, gel filtration
HLA-A*1101 (human) [19] = assay: as above
HLA-A*0301 (human) [20] = assay: competition with 125I-labelled standard peptide for purified HLA, gel filtration
HLA-A*1101 (human) [21] = assay: as above
HLA-A*3301 (human) = assay: as above
HLA-A*6801 (human) = assay: as above
[22] = remark: other sources report otherwise

B1: HPV18 E7 position 63, 10-mer … (peptide)
peptide: CMCCKCEARI
modifications: not checked
For B1, the binding affinity ratio (IC50 of standard peptide / IC50 of test peptide) (HLA-A*2402 (human)) was 0.0001.

B2: HPV16 E6 11 … (peptide)
peptide: DPQERPRKL
modifications: not checked
B2 gave a binding affinity ratio (IC50 of standard peptide / IC50 of test peptide) (HLA-B*0702 (human) [1]) of 0.0001, a binding affinity ratio (IC50 of standard peptide / IC50 of test peptide) (HLA-B*3501 (human) [2]) of 0.0001 and a binding affinity ratio (IC50 of standard peptide / IC50 of test peptide) (HLA-B*5101 (human) [3]) of 0.0001. It also gave a binding affinity ratio (IC50 of standard peptide / IC50 of test peptide) (HLA-B*5301 (human) [4]) of 0.0001 and a binding affinity ratio (IC50 of standard peptide / IC50 of test peptide) (HLA-B*5401 (human) [5]) of 0.0002.

B3: HPV18 E7 63-73 peptide … (peptide)
peptide: CMCCKCEARIK
modifications: not checked
B3 was tested, and the relative binding ratio (IC50 of standard peptide / IC50 of test peptide) (HLA-A*0301 (human) [6]) was 0.0014 and the relative binding ratio (IC50 of standard peptide / IC50 of test peptide) [7] was 0.0002.

B4: HPV16 E6 65 … (peptide)
peptide: NPYAVCDKCL
modifications: not checked
In the case of B4, the relative binding ratio (HLA-B*0702 (human) [8]) is reported as 0.0001, the relative binding ratio (HLA-B*3501 (human) [9]) is reported as 0.0001 and the relative binding ratio (HLA-B*5101 (human) [10]) is reported as 0.0001. It also gave a relative binding ratio (HLA-B*5301 (human) [11]) of 0.0001 and a relative binding ratio (HLA-B*5401 (human) [12]) of 0.0001.

B5: HPV45 E1 peptide … (position 532, 9 amino acids) (peptide)
peptide: ALDGNPISI
modifications: not checked
In the case of B5, the relative binding ratio (IC50 of standard peptide / IC50 of test peptide) [13] is reported as 0.021.

B6: HPV16 E1 576 … (peptide)
peptide: WPYLHNRLV
modifications: not checked
B6 gave a binding affinity ratio (IC50 of standard peptide / IC50 of test peptide) (HLA-B*0702 (human) [1]) of 0.052, a binding affinity ratio (IC50 of standard peptide / IC50 of test peptide) (HLA-B*3501 (human) [2]) of 0.0003 and a binding affinity ratio (IC50 of standard peptide / IC50 of test peptide) (HLA-B*5101 (human) [3]) of 0.11. It also gave a binding affinity ratio (IC50 of standard peptide / IC50 of test peptide) (HLA-B*5301 (human) [4]) of 0.0002 and a binding affinity ratio (IC50 of standard peptide / IC50 of test peptide) (HLA-B*5401 (human) [5]) of 0.18.

B7: HPV18 E1 315 peptide … (peptide)
peptide: QPPKLRSSV
modifications: not checked
With B7 the binding affinity ratio (IC50 of standard peptide / IC50 of test peptide) (HLA-B*3501 (human) [14]) was 0.0003, the binding affinity ratio (IC50 of standard peptide / IC50 of test peptide) (HLA-B*5101 (human) [15]) was 0.0002 and the binding affinity ratio (IC50 of standard peptide / IC50 of test peptide) (HLA-B*5301 (human) [16]) was 0.0002.

B8: HPV16 E7 46 … (peptide)
peptide: EPDRAHYNI
modifications: not checked
B8 was tested, and the relative binding ratio (HLA-B*0702 (human) [8]) was 0.0001, the relative binding ratio (HLA-B*3501 (human) [9]) was 0.0001 and the relative binding ratio (HLA-B*5101 (human) [10]) was 0.0031. It also gave a relative binding ratio (HLA-B*5301 (human) [11]) of 0.0017 and a relative binding ratio (HLA-B*5401 (human) [12]) of 0.0002.

B9: HPV31 E1 489 peptide … (SEQ ID NO: 34685) (peptide)
peptide: WLQPLADAK
modifications: not checked
B9 gave a relative binding ratio (IC50 of standard peptide / IC50 of test peptide) (HLA-A*0301 (human) [17]) of 0.0005.

B10: HPV16 E7 5 … (peptide)
peptide: TPTLHEYML
modifications: not checked
In the case of B10, the relative binding ratio (HLA-B*0702 (human) [8]; [22]) is reported as 0.11, the relative binding ratio (HLA-B*3501 (human) [9]; [22]) is reported as 0.0001 and the relative binding ratio (HLA-B*5101 (human) [10]; [22]) is reported as 0.0001. For the same binder, the relative binding ratio (HLA-B*5301 (human) [11]; [22]) was 0.0001 and the relative binding ratio (HLA-B*5401 (human) [12]; [22]) was 0.0002.

B11: HPV18 E1 97 peptide … (peptide)
peptide: SPLGERLEV
modifications: not checked
B11 gave a binding affinity ratio (IC50 of standard peptide / IC50 of test peptide) (HLA-B*0702 (human) [8]) of 0.13, a binding affinity ratio (IC50 of standard peptide / IC50 of test peptide) (HLA-B*3501 (human) [9]) of 0.0003 and a binding affinity ratio (IC50 of standard peptide / IC50 of test peptide) (HLA-B*5101 (human) [10]) of 0.0002. It also gave a binding affinity ratio (IC50 of standard peptide / IC50 of test peptide) (HLA-B*5301 (human) [11]) of 0.0002 and a binding affinity ratio (IC50 of standard peptide / IC50 of test peptide) (HLA-B*5401 (human) [12]) of 0.0011.

B12: HPV16 E1 292 … (peptide)
peptide: KLLSKLLCV
modifications: not checked
Work on B12 yielded a relative binding ratio (IC50 of standard peptide / IC50 of test peptide) (HLA-A*0201 (human)) of 0.051.

B13: HPV16 E1 308 … (peptide)
peptide: EPPKLRSTAA
modifications: not checked
B13 gave a binding affinity ratio (IC50 of standard peptide / IC50 of test peptide) (HLA-B*0702 (human) [1]) of 0.0002, a binding affinity ratio (IC50 of standard peptide / IC50 of test peptide) (HLA-B*3501 (human) [2]) of 0.0003 and a binding affinity ratio (IC50 of standard peptide / IC50 of test peptide) (HLA-B*5101 (human) [3]) of 0.0002. The binding affinity ratio (IC50 of standard peptide / IC50 of test peptide) (HLA-B*5301 (human) [4]) was 0.0002 and the binding affinity ratio (IC50 of standard peptide / IC50 of test peptide) (HLA-B*5401 (human) [5]) was 0.02.

B14: HPV16 E1 peptide … (position 567, 9 amino acids) (peptide)
peptide: NINAGTDSR
modifications: not checked
In the case of B14, the relative binding ratio (IC50 of standard peptide / IC50 of test peptide) (HLA-A*0301 (human) [18]) is reported as 0.0005, the relative binding ratio (IC50 of standard peptide / IC50 of test peptide) (HLA-A*1101 (human) [19]) is reported as 0.0002 and the binding affinity ratio (IC50 of the standard peptide / IC50 of the test peptide) (HLA-A*0301 (human) [17]) is reported as 0.0005.

B15: HPV16 E1 peptide … (position 443, 9 amino acids) (peptide)
peptide: VMFLRYQGV
modifications: not checked
With B15 the relative binding ratio (IC50 of standard peptide / IC50 of test peptide) (ratio to standard peptide) [13] was 0.014.

B16: HPV16 E6 peptide … (peptide)
peptide: TTLEQQYNK
modifications: not checked
Binder B16 has a binding affinity ratio (IC50 of standard peptide / IC50 of test peptide) (HLA-A*0301 (human) [20]) of 0.01, a binding affinity ratio (IC50 of standard peptide / IC50 of test peptide) (HLA-A*1101 (human) [21]) of 0.29 and a binding affinity ratio (IC50 of standard peptide / IC50 of test peptide) (HLA-A*3301 (human)) of 0.066. The binding affinity ratio (IC50 of standard peptide / IC50 of test peptide) (HLA-A*6801 (human)) was 0.3.

B17: HPV16 E1 297 … (peptide)
peptide: LLCVSPMCM
modifications: not checked
Work on B17 yielded a relative binding ratio (IC50 of standard peptide / IC50 of test peptide) (HLA-A*0201 (human)) of 0.0008.

B18: HPV16 E7 peptide … (peptide)
peptide: IVCPICSQK
modifications: not checked
For B18, the binding affinity ratio (IC50 of standard peptide / IC50 of test peptide) (HLA-A*0301 (human) [20]; [22]) was 0.0077, the binding affinity ratio (IC50 of standard peptide / IC50 of test peptide) (HLA-A*1101 (human) [21]; [22]) was 0.0065 and the binding affinity ratio (IC50 of standard peptide / IC50 of test peptide) (HLA-A*3301 (human); [22]) was 0.0016. For the same binder, the binding affinity ratio (IC50 of standard peptide / IC50 of test peptide) (HLA-A*6801 (human); [22]) was 0.01.
